Source: patent US20190111115A1
pKd: −log10 of the molar value.

What was measured:
Assay in all cases: ELISA
Mouse FcRI = biological target: Mouse FcRI
Human FcRn = biological target: Human FcRn
Human FcR1 (human) = Human FcR1 (human) (UniProt P12314)
Human FcRIII (human) = biological target: Human FcRIII (human)
Mouse FcRIV = biological target: Mouse FcRIV
Human FcRIIA[R] = biological target: Human FcRIIA[R]
Human FcRIIA[H] (human) = Human FcRIIA[H] (human) (UniProt P12318)
Human FcRIIB = biological target: Human FcRIIB
Mouse FcRIIB = biological target: Mouse FcRIIB

Sequence of Human FcRIIA[H] (human) (P12318 34-217): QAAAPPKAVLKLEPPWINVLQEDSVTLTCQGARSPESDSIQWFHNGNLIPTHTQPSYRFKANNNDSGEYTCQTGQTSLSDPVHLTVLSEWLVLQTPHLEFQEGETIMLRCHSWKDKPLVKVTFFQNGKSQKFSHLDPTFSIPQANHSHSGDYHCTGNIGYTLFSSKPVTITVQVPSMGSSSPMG
Sequence of Human FcRIII (human) (P08637 17-208): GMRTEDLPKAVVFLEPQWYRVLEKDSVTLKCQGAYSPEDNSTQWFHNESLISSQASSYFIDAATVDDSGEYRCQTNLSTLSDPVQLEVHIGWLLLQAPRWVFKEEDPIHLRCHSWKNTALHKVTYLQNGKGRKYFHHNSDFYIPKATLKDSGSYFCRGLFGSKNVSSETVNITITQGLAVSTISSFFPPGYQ
Sequence of Human FcR1 (human) (P12314 16-292): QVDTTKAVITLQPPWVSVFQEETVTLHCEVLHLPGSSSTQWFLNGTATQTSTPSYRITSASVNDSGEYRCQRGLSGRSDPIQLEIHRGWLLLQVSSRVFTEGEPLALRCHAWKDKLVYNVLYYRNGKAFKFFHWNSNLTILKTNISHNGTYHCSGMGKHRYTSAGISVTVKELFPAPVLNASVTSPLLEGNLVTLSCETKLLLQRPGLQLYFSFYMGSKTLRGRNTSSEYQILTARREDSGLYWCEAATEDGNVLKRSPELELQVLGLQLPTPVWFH
Sequence of Mouse FcRIV (A0A0B4J1G0 21-203): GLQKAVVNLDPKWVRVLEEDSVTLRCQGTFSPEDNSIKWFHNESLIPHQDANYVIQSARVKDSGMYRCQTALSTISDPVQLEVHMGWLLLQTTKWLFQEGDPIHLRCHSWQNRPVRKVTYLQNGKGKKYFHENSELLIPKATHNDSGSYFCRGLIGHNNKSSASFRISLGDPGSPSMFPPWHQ

Substance: IgG1
- pKd (Mouse FcRI): 8.88
- pKd (Human FcRn): 7.85
- pKd (Human FcR1 (human)): 9.79
- pKd (Human FcRIII (human)): 5.93
- pKd (Mouse FcRIV): 8.19
- pKd (Human FcRIIA[R]): 6.70
- pKd (Human FcRIIA[H] (human)): 6.48
- pKd (Human FcRIIB): 6.06
- pKd (Mouse FcRIIB): 6.43
